T1: GIP receptor
T1 sequence (P48546 whole entry, species assumed, looked up): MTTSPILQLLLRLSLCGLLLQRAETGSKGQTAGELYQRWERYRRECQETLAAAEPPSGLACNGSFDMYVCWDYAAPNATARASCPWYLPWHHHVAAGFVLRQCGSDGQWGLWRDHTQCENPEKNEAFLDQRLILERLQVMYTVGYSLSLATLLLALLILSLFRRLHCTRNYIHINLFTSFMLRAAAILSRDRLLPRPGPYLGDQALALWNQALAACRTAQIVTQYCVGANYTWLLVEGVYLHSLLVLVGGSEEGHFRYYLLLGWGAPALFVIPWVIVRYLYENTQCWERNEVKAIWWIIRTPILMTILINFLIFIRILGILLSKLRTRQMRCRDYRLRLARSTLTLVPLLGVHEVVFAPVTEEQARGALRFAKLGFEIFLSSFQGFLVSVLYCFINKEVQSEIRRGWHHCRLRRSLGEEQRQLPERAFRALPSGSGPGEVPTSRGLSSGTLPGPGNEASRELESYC


Key:
[1] = target: GLP-1 receptor; assay: cell-based or functional assay
[2] = target: T1, GIP receptor; assay: cell-based or functional assay

Binder | cAMP experimental result of GLP-1 receptor, EC50 [1] | cAMP experimental result of GIP receptor, EC50 [2]
YXEGTFTSDYSIXLDKIAQKAFVQWLIAGGPSSGAPPPS (Aib at positions 2 and 13; by the synthesis order the Lys(Alloc) at position 16 carries AEEEA-AEEEA-gamma-Glu-icosanedioic acid on its side chain; C-terminal amide (Rink MBHA Amide resin)) [BGM125] | 0.0692 nM | 0.684 nM
YXEGTFTSDYSIXLDKIAQKAFVQWLIAGGPSSGAPPPSK (Aib (2-aminoisobutyric acid) at positions 2 and 13; Lys at position 40 carries on its side chain AEEEA-AEEEA-gamma-Glu-icosanedioic acid (Fmoc-AEEEA-OH, Fmoc-AEEEA-OH, Fmoc-Glu-OtBu and 20-(tert-butoxy)-20-oxoicosanoic acid condensed in turn); C-terminal amide (made on Rink MBHA Amide resin)) [BG128] | 0.11 nM | 0.279 nM
